B1: PEX5 peptide 110-125 (Peroxisomal targeting signal 1 receptor), 16-mer library wild type / PEX14 Pex14 (PEX14 PEX14, residues 16-84) (parent complex)
chain 1: ADLALSENWAQEFLAA
chain 2: TPGSENVLPREPLIATAVKFLQNSRVRQSPLATRRAFLKKKGLTDEEIDMAFQQSGTAADEPSSLGPAT
B2: MXI1 peptide 6-21 (Max-interacting protein 1), 16-mer library wild type / SIN3A PAH2 (SIN3A PAH domain, residues 295-383) (parent complex)
chain 1: MINVQRLLEAAEFLER
chain 2: SLQNNQPVEFNHAINYVNKIKNRFQGQPDIYKAFLEILHTYQKEQRNAKEAGGNYTPALTEQEVYAQVARLFKNQEDLLSEFGQFLPDA

Variants of: B1
Assay: proteomic peptide phage display deep mutational scan (ProP-PD DMS): M13 P8 16-mer library selected against immobilised GST-tagged bait for four days (rounds), NGS of the eluted pools per day and pseudo-replica; bait immobilised on MaxiSorp plates (10 µg), library pre-cleared on GST, 2 h binding at 4 °C, five washes; one round per day, days 1-4; value from days 2 and 3

Row | Variant | screen value
1 | chain 1 E12M | 0.000654 average fractional NGS count over selection days 2 and 3 (reads of this peptide / all reads for the bait, averaged over …
2 | chain 1 A4L | 0.000672 average fractional NGS count over selection days 2 and 3 (reads of this peptide / all reads for the bait, averaged over …
3 | chain 1 L3P | 0.00046 average fractional NGS count over selection days 2 and 3 (reads of this peptide / all reads for the bait, averaged over …
4 | chain 1 L3F | 0.000885 average fractional NGS count over selection days 2 and 3 (reads of this peptide / all reads for the bait, averaged over …
5 | chain 1 F13W | 0.000735 average fractional NGS count over selection days 2 and 3 (reads of this peptide / all reads for the bait, averaged over …
6 | chain 1 E7H | 0.00742 average fractional NGS count over selection days 2 and 3 (reads of this peptide / all reads for the bait, averaged over …
7 | chain 1 E7D | 0.00312 average fractional NGS count over selection days 2 and 3 (reads of this peptide / all reads for the bait, averaged over …
8 | chain 1 L5A | 0.00106 average fractional NGS count over selection days 2 and 3 (reads of this peptide / all reads for the bait, averaged over …
9 | chain 1 L5Y | 0.00132 average fractional NGS count over selection days 2 and 3 (reads of this peptide / all reads for the bait, averaged over …
10 | chain 1 A15W | 0.00189 average fractional NGS count over selection days 2 and 3 (reads of this peptide / all reads for the bait, averaged over …
11 | chain 1 A15V | 0.000924 average fractional NGS count over selection days 2 and 3 (reads of this peptide / all reads for the bait, averaged over …
12 | chain 1 A1P | 0.000566 average fractional NGS count over selection days 2 and 3 (reads of this peptide / all reads for the bait, averaged over …
13 | chain 1 N8F | 0.00191 average fractional NGS count over selection days 2 and 3 (reads of this peptide / all reads for the bait, averaged over …
14 | chain 1 A10R | 0.000397 average fractional NGS count over selection days 2 and 3 (reads of this peptide / all reads for the bait, averaged over …
15 | chain 1 D2E | 0.000736 average fractional NGS count over selection days 2 and 3 (reads of this peptide / all reads for the bait, averaged over …
16 | chain 1 D2H | 0.004 average fractional NGS count over selection days 2 and 3 (reads of this peptide / all reads for the bait, averaged over …

Variants of: B2
Assay: as above

Row | Variant | screen value
17 | chain 1 L14M | 0.000829 average fractional NGS count over selection days 2 and 3 (reads of this peptide / all reads for the bait, averaged over …
18 | chain 1 L14W | 0.000239 average fractional NGS count over selection days 2 and 3 (reads of this peptide / all reads for the bait, averaged over …
19 | chain 1 L14K | 0.000523 average fractional NGS count over selection days 2 and 3 (reads of this peptide / all reads for the bait, averaged over …
20 | chain 1 L14Y | 0.00247 average fractional NGS count over selection days 2 and 3 (reads of this peptide / all reads for the bait, averaged over …
21 | chain 1 L14D | 0.000292 average fractional NGS count over selection days 2 and 3 (reads of this peptide / all reads for the bait, averaged over …
22 | chain 1 L14R | 0.000773 average fractional NGS count over selection days 2 and 3 (reads of this peptide / all reads for the bait, averaged over …
23 | chain 1 L14S | 0.00955 average fractional NGS count over selection days 2 and 3 (reads of this peptide / all reads for the bait, averaged over …
24 | chain 1 L14H | 0.00159 average fractional NGS count over selection days 2 and 3 (reads of this peptide / all reads for the bait, averaged over …
25 | chain 1 L14E | 0.00161 average fractional NGS count over selection days 2 and 3 (reads of this peptide / all reads for the bait, averaged over …
26 | chain 1 L14N | 0.0048 average fractional NGS count over selection days 2 and 3 (reads of this peptide / all reads for the bait, averaged over …
27 | chain 1 L14V | 0.000293 average fractional NGS count over selection days 2 and 3 (reads of this peptide / all reads for the bait, averaged over …
28 | chain 1 E12F | 0.0145 average fractional NGS count over selection days 2 and 3 (reads of this peptide / all reads for the bait, averaged over …
29 | chain 1 E12H | 0.00554 average fractional NGS count over selection days 2 and 3 (reads of this peptide / all reads for the bait, averaged over …
30 | chain 1 E12Q | 0.00319 average fractional NGS count over selection days 2 and 3 (reads of this peptide / all reads for the bait, averaged over …
31 | chain 1 E12V | 0.000221 average fractional NGS count over selection days 2 and 3 (reads of this peptide / all reads for the bait, averaged over …
32 | chain 1 E12N | 0.000144 average fractional NGS count over selection days 2 and 3 (reads of this peptide / all reads for the bait, averaged over …
33 | chain 1 E12G | 0.00105 average fractional NGS count over selection days 2 and 3 (reads of this peptide / all reads for the bait, averaged over …
34 | chain 1 E12L | 0.0769 average fractional NGS count over selection days 2 and 3 (reads of this peptide / all reads for the bait, averaged over …
35 | chain 1 E12I | 0.000347 average fractional NGS count over selection days 2 and 3 (reads of this peptide / all reads for the bait, averaged over …
36 | chain 1 E12K | 0.00174 average fractional NGS count over selection days 2 and 3 (reads of this peptide / all reads for the bait, averaged over …

Row | Variant | screen value
37 | chain 1 E12S | 0.000265 average fractional NGS count over selection days 2 and 3 (reads of this peptide / all reads for the bait, averaged over …
38 | chain 1 E12W | 9.8e-05 average fractional NGS count over selection days 2 and 3 (reads of this peptide / all reads for the bait, averaged over …
39 | chain 1 E12T | 0.000504 average fractional NGS count over selection days 2 and 3 (reads of this peptide / all reads for the bait, averaged over …
40 | chain 1 E12R | 0.00176 average fractional NGS count over selection days 2 and 3 (reads of this peptide / all reads for the bait, averaged over …
41 | chain 1 Q5H | 0.00355 average fractional NGS count over selection days 2 and 3 (reads of this peptide / all reads for the bait, averaged over …
42 | chain 1 Q5T | 0.00207 average fractional NGS count over selection days 2 and 3 (reads of this peptide / all reads for the bait, averaged over …
43 | chain 1 Q5F | 0.000275 average fractional NGS count over selection days 2 and 3 (reads of this peptide / all reads for the bait, averaged over …
44 | chain 1 Q5M | 0.000803 average fractional NGS count over selection days 2 and 3 (reads of this peptide / all reads for the bait, averaged over …
45 | chain 1 Q5A | 0.000986 average fractional NGS count over selection days 2 and 3 (reads of this peptide / all reads for the bait, averaged over …
46 | chain 1 Q5N | 0.000576 average fractional NGS count over selection days 2 and 3 (reads of this peptide / all reads for the bait, averaged over …
47 | chain 1 Q5S | 0.000556 average fractional NGS count over selection days 2 and 3 (reads of this peptide / all reads for the bait, averaged over …
48 | chain 1 Q5Y | 0.00574 average fractional NGS count over selection days 2 and 3 (reads of this peptide / all reads for the bait, averaged over …
49 | chain 1 A11L | 0.000741 average fractional NGS count over selection days 2 and 3 (reads of this peptide / all reads for the bait, averaged over …
50 | chain 1 A11N | 0.000651 average fractional NGS count over selection days 2 and 3 (reads of this peptide / all reads for the bait, averaged over …
51 | chain 1 A11W | 0.00145 average fractional NGS count over selection days 2 and 3 (reads of this peptide / all reads for the bait, averaged over …
52 | chain 1 A11I | 0.000346 average fractional NGS count over selection days 2 and 3 (reads of this peptide / all reads for the bait, averaged over …
53 | chain 1 A11H | 0.000274 average fractional NGS count over selection days 2 and 3 (reads of this peptide / all reads for the bait, averaged over …
54 | chain 1 A11M | 0.00708 average fractional NGS count over selection days 2 and 3 (reads of this peptide / all reads for the bait, averaged over …
55 | chain 1 A11F | 0.000474 average fractional NGS count over selection days 2 and 3 (reads of this peptide / all reads for the bait, averaged over …
56 | chain 1 A11E | 0.000155 average fractional NGS count over selection days 2 and 3 (reads of this peptide / all reads for the bait, averaged over …

Row | Variant | screen value
57 | chain 1 A11Q | 0.000778 average fractional NGS count over selection days 2 and 3 (reads of this peptide / all reads for the bait, averaged over …
58 | chain 1 A11G | 0.000249 average fractional NGS count over selection days 2 and 3 (reads of this peptide / all reads for the bait, averaged over …
59 | chain 1 L7W | 0.00101 average fractional NGS count over selection days 2 and 3 (reads of this peptide / all reads for the bait, averaged over …
60 | chain 1 L7F | 0.000853 average fractional NGS count over selection days 2 and 3 (reads of this peptide / all reads for the bait, averaged over …
61 | chain 1 L7Y | 0.00109 average fractional NGS count over selection days 2 and 3 (reads of this peptide / all reads for the bait, averaged over …
62 | chain 1 L8Q | 0.000344 average fractional NGS count over selection days 2 and 3 (reads of this peptide / all reads for the bait, averaged over …
63 | chain 1 L8S | 0.000473 average fractional NGS count over selection days 2 and 3 (reads of this peptide / all reads for the bait, averaged over …
64 | chain 1 L8Y | 0.000651 average fractional NGS count over selection days 2 and 3 (reads of this peptide / all reads for the bait, averaged over …
65 | chain 1 L8G | 0.000132 average fractional NGS count over selection days 2 and 3 (reads of this peptide / all reads for the bait, averaged over …
66 | chain 1 L8V | 0.000127 average fractional NGS count over selection days 2 and 3 (reads of this peptide / all reads for the bait, averaged over …
67 | chain 1 L8H | 0.000323 average fractional NGS count over selection days 2 and 3 (reads of this peptide / all reads for the bait, averaged over …
68 | chain 1 L8T | 0.000156 average fractional NGS count over selection days 2 and 3 (reads of this peptide / all reads for the bait, averaged over …
69 | chain 1 L8M | 0.000134 average fractional NGS count over selection days 2 and 3 (reads of this peptide / all reads for the bait, averaged over …
70 | chain 1 E15Y | 0.0114 average fractional NGS count over selection days 2 and 3 (reads of this peptide / all reads for the bait, averaged over …
71 | chain 1 E15F | 0.000557 average fractional NGS count over selection days 2 and 3 (reads of this peptide / all reads for the bait, averaged over …
72 | chain 1 E15H | 0.00272 average fractional NGS count over selection days 2 and 3 (reads of this peptide / all reads for the bait, averaged over …
73 | chain 1 E15Q | 0.000842 average fractional NGS count over selection days 2 and 3 (reads of this peptide / all reads for the bait, averaged over …
74 | chain 1 E15N | 0.000504 average fractional NGS count over selection days 2 and 3 (reads of this peptide / all reads for the bait, averaged over …
75 | chain 1 E15T | 0.119 average fractional NGS count over selection days 2 and 3 (reads of this peptide / all reads for the bait, averaged over …

Source: publication PMC12102759 (2025)
